Assay results taken from US20140275490A1.

Tests used:
human IL-23R (human) = human IL-23R (human) (UniProt Q5VWK5); test: cell-based or functional assay
[1] = target: human IL-23R-mouse Fc fusion protein (human; mouse) (UniProt Q5VWK5); test: antigen ELISA, human IL-23R-Fc immobilized, HRP anti-human IgG, chemiluminescence
[2] = target: monkey IL-23R-mouse Fc fusion protein (monkey; mouse); test: antigen ELISA, monkey IL-23R-Fc immobilized, HRP anti-human IgG, chemiluminescence

Chain of human IL-23R (human) (Q5VWK5 24-629 L310P limits assumed): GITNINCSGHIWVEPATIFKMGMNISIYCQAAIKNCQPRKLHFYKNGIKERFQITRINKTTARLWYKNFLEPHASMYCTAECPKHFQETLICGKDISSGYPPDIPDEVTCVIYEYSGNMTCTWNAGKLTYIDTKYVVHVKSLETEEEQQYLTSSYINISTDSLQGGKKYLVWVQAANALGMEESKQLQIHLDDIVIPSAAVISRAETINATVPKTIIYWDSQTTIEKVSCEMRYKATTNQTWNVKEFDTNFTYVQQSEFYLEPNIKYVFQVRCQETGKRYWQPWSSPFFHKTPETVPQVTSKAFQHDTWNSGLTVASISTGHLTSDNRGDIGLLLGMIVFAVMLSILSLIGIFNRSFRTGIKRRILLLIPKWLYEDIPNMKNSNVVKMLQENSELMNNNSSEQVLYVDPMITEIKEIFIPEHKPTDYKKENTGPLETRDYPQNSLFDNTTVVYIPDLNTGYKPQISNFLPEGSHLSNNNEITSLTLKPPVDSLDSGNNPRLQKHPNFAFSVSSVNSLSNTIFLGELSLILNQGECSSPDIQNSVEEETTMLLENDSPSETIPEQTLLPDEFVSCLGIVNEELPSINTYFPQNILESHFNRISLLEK
Chain of human IL-23R-mouse Fc fusion protein (human; mouse) (Q5VWK5 24-353 L310P): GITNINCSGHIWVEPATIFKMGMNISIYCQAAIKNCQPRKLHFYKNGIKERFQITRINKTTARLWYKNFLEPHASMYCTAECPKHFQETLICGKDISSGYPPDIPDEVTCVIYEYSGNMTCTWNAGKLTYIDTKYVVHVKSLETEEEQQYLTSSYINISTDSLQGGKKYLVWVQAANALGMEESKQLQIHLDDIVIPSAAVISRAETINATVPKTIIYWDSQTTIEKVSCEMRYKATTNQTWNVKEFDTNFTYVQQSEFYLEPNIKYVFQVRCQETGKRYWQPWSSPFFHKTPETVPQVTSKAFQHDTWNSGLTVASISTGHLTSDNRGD

IC50, IL-23-stimulated STAT3 phosphorylation in CD4 lymphocytes of human whole blood (human IL-23R (human)): 0.01 µg/mL
IC50, inhibition of human IL-23-inducible Kit-225 cell proliferation (human IL-23R (human)): 0.055 µg/mL
EC50 [1]: 0.0485 µg/mL
EC50 [2]: > 10 µg/mL
B1: hum20D7 (antibody, from another filing, V domains shown)
VH: QVQLVQSGAEVKKPGASVKVSCKASGYTFTNYAMNWVRQAPGQGLEWMGWINTYTGEPTYSDDFKGRVTFTLDTSTSTAYMELRSLRSDDTAVYYCARGGGYDEDYFDYWGQGTLVTVSS
VL: DIVMTQSPLSLPVTPGEPASISCKSSQSLFNTINQKTYLAWYLQKPGQSPQLLIYFASTRESGVPDRFSGSGSGTDFTLKISRVEAEDVGVYYCQQHYDTPWTFGQGTKVEIKR
